Source: paper PMC4302597

Molecular target: tubulin of PC12 cells (microtubule (MT) fraction, soluble tubulin (ST) fraction or cell lysate) (rat (endogenous in PC12)) (UniProt P68370)
Assay: co-IP; MT fraction of PC12 cells, untreated or treated with 100 ng/mL NGF for three days; 100 μL aliquots (~0.25–1 mg/mL) with anti-α tubulin or anti-Gβ for 1 h at 4°C, then protein A-sepharose overnight at 4°C; immunoblot for Gβ or tubulin

βγ subunit of heterotrimeric G proteins (Gβγ), endogenous in PC12 cells (from UniProt P54311 1-340) (complex)
fold increase of co-immunoprecipitation in NGF-treated over untreated cells: 2 to 3 fold
